This assay deals with T1, BCL11A, endogenous, in mouse erythroid (MEL) cells (mouse, UniProt Q9QYE3 1-835, limits assumed).
T1 sequence (looked up): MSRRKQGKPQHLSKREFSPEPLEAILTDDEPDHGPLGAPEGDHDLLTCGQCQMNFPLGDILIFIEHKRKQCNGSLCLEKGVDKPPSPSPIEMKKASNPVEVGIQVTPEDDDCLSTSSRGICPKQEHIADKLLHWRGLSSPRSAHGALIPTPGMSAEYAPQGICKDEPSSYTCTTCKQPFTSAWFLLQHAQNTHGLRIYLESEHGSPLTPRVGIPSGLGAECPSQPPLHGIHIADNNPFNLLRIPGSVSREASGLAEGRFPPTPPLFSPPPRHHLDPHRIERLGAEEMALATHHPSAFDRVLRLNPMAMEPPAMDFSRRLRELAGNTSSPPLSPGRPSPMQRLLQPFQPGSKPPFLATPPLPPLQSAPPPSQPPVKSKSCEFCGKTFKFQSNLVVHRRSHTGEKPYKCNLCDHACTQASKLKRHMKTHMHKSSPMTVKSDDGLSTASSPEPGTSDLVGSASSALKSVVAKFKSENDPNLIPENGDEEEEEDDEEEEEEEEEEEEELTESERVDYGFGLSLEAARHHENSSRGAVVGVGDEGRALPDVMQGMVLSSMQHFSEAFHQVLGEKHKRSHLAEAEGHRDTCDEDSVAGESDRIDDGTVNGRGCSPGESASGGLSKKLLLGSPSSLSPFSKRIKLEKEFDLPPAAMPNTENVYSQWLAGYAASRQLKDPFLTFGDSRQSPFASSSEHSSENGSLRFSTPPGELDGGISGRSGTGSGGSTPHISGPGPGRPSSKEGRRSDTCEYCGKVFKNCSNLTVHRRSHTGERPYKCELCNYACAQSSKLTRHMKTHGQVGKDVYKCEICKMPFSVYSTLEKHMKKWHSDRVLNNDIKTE
Nature of the assay: immunoprecipitation of tagged mouse LRF from MEL cells, Western blot. An excerpt: FKPM values were obtained from RNA-Seq experiments. (B) Validation of Y2H results by IP. […] Protein samples from empty vector-transfected cells served as negative controls. (C) LRF/GATAD2B interaction was validated in mouse erythroleukemia (MEL) cells. Applicants generated a series of expression vectors encoding N- or C-terminally-tagged mouse LRF (mLRF) and performed IP in MEL cells. Applicants could pull-down NuRD components and endogenous LRF protein only when Applicants expressed the LRF tagged at the far C-terminus. Anti-HA antibody could pull down both endogenous and exogenous LRF plus NuRD components (far right lane), while antibody against Flag, which was placed 15 aa upstream of the HA tag, pulled down only exogenous LRF (2nd lane from the left). Although Applicants tested 5 different (2 original and 3 commercially-available) anti-LRF antibodies for IP in mouse cells, none could pull down endogenous mouse LRF protein. Native LRF in the large NuRD complex may be inaccessible to anti-LRF antibodies in mouse cells (a model shown on right). Applicants note that the BCL11A image is from a different membrane. (D) Knockout of LRF or BCL11A was confirmed by Western blot using anti-LRF or -BCL11A antibodies. GAPDH: loading control. (E) Relative copy number of indicated β-globin transcripts was determined by q-PCR, as described in FIG. 8C. […]
(A western blot detects proteins with antibodies after separation by electrophoresis.)

B1: mouse LRF tagged at the far C-terminus with Flag and HA (pMX-mCherry-FHC-mLRF), expressed in MEL cells (other, UniProt O88939 1-569, looked up)
chain: MAGGVDGPIGIPFPDHSSDILSGLNEQRTQGLLCDVVILVEGREFPTHRSVLAACSQYFKKLFTSGAVVDQQNVYEIDFVSAEALTALMDFAYTATLTVSTANVGDILSAARLLEIPAVSHVCADLLERQILAADDVGDASQPDGAGPTDQRNLLRAKEYLEFFRSNPMNSLPPTAFPWSGFGAPDDDLDATKEAVAAAVAAVAAGDCNGLDFYGPGPPADRPPAGDGDEGDSTPGLWPERDEDAPPGGLFPPPTAPPATTQNGHYGRAGAGTGEEEAAALSEAAPEPGDSPGFLSGAAEGEDGDAADVDGLAASTLLQQMMSSVGRAGDSDEESRTDDKGVMDYYLKYFSGAHEGDVYPAWSQKGEKKIRAKAFQKCPICEKVIQGAGKLPRHIRTHTGEKPYECNICKVRFTRQDKLKVHMRKHTGEKPYLCQQCGAAFAHNYDLKNHMRVHTGLRPYQCDSCCKTFVRSDHLHRHLKKDGCNGVPSRRGRKPRVRGVPPDVPAGAGAPPGLPDAPRNGQEKHFKDEEEDEEEASPDGSGRLNVAGSGGDDGAGGPAVATAEGNFAT
notes: also called exogenous LRF; not shown: Flag and HA tags at the 3' end of the cDNA, Flag placed 15 aa upstream of the HA tag
Regarding B1, the binding result was “no binding”.

Source of the values: patent US20190111114A1 (BRIGHAM AND WOMEN S HOSPITAL, published 2019).
